Results on 30 sequences are retold here after the nanobody polyreactivity screen of Harvey et al. (2022).

This data set can be described thus: yeast display, Sf9 membrane polyspecificity reagent, FACS + sequencing; frameworks hold sequencing errors. In outline: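 In a synthetic yeast display library (Saccharomyces cerevisiae BJ5465), nanobody expression was induced with galactose for 36–48 hours. FACS gates were set low and high (top ~1%) using anti-HA fluorescence for expression and streptavidin fluorescence for binding of the Sf9 membrane reagent. Each polyreactivity label is drawn from the gate of origin.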
“QVQLVESGGGLVQAGGSLRLSCAASGSTFQGNAMGWYRQAPGKERELVAAISTSGGRTRYADSVKGRFTISRDKAKNTVYLQMNSLKPEDTAVYHCATTYWYGKRPKMYYWGQGTQVTVSS”: the “polyreactivity (PSR sort gate)” value is given as “high polyreactivity”.
“QVQLVESGGGLVQAGGSLRLSCAASGSTFQHYAMGWYRQAPGKERELVAAITNTGGSTYYADSVKGRFTISRDNAKNTVDLQMNSLKPEDTAVYYCATVGRRYGYPGDYWGQGTQVTVSS”: the “polyreactivity (PSR sort gate)” value was “low polyreactivity”.
“QVQLVESGGGLVQAGGSLRLSCAASGSTFQINAMGWYRQAPGKEREFVAAITVSSGSTYYADSVKGRFTISRDNAKNTVYLQMNSLKPEDTAVYYCAADYWGQGTQVTVSS”: the “polyreactivity (PSR sort gate)” value was “low polyreactivity”.
Take “QVQLVESGGGLVQAGGSLRLSCAASGSTFQLNAMGWYRQAPGKERELVAAISVRGGSTYYADSVKGRFTISRDTAKNTVYLQMHSLKPEETAVYYCATDSLYFLFAGDAVVRRPSYYWGQGTQVTVSS”: the “polyreactivity (PSR sort gate)” value is “high polyreactivity”.
Regarding “QVQLVESGGGLVQAGGSLRLSCAASGSTFQPYAMGWYIQAPGKEREFVATISGSAGSTYYADSVKGRFKISRDNAKNTVYLQMNSLKPEDTAVYYCNADSGWFGYDYWGQGTQVTVSS”, the “polyreactivity (PSR sort gate)” value is “low polyreactivity”.
On to “QVQLVESGGGLVQAGGSLRLSCAASGSTFQPYAMGWYRQAPGKEREFVATISGSAGSTYYADSVKGRFKISRDNAKNTVYLQMNSLKPEDTGVYYCNARPARKSLDYDYWGQGTQVTVSS”, for which the “polyreactivity (PSR sort gate)” value is “low polyreactivity”.
“QVQLVESGGGLVQAGGSLRLSCAASGSTFQPYAMGWYRQSPGKEREFVATISGSAGSTYYADSVKGRFKISRDNAKNTVYLQMNSLKPEDTAVYYCNADSGWFGYDYWGQGTQVTVSS”: the “polyreactivity (PSR sort gate)” value is recorded as “low polyreactivity”.
With “QVQLVESGGGLVQAGGSLRLSCAASGSTFQRNAMGWYRQAPGKERELVAAITSRGGSTYYADSVKGRFTISRDNAKNTVSLQMNSLNPEDTGVYYCAALTWARSRNGTYDYWGPGTQVTVSS”, the “polyreactivity (PSR sort gate)” value was “high polyreactivity”.
Consider “QVQLVESGGGLVQAGGSLRLSCAASGSTFQRYAMGWYRQAPGKERELVAAITWSGGSTKYADSVKGRFTISRDNAKNTVYLQMNSLKPEDTAVYYCAATPGRGGGYNYWGQGTQVTVSS”, for which the “polyreactivity (PSR sort gate)” value is on record as “low polyreactivity”.
For “QVQLVESGGGLVQAGGSLRLSCAASGSTFQSYAMGWYRQAPGKERELVAAISTSDTDRTYYADSVKGRFTISRDNAKNTVYLQMNSLKPEDTAVYYCNADGYSHGDWYGYWGQGTQVTVSS”, the “polyreactivity (PSR sort gate)” value is “low polyreactivity”.
Turning to “QVQLVESGGGLVQAGGSLRLSCAASGSTFQTYAMGWYRQAPGKERELVAAITSGGSTNYADSVKGRFTISRDNAKNTVYLQMNSLKPEDTAVYYCAVRQIYQTSDHRLQYDYWGQGTQVTVSS”, the “polyreactivity (PSR sort gate)” value is “low polyreactivity”.
As to “QVQLVESGGGLVQAGGSLRLSCAASGSTFQTYAMGWYRQPPGKERELVAALNWRSGSTYYADSVKGRFTISRDNATNTVYLLMTSVKPEDTAVYDCARRSTGYTFDVSSMDYWGQGTQVTLSS”, the “polyreactivity (PSR sort gate)” value is “low polyreactivity”.
Under “QVQLVESGGGLVQAGGSLRLSCAASGSTFQWNTMGWYRQAPGKERELVARITGGGGSTYYADSVKGRFTISRDNAKNTVYLQMNSLKPEDTAVYYCNAAIFGRYEYWGQGTQVTVSS” stands “low polyreactivity”; under “QVQLVESGGGLVQAGGSLRLSCAASGSTFQWYTMGWYRQAPGKERECVAAISRSGGRTYYADSVKGRFTISRDNAKNTVYLQMNSLKPVDTAVYYCAKYYYLYWSSQRDYWGQGTQVTVSS”, “high polyreactivity”.
To “QVQLVESGGGLVQAGGSLRLSCAASGSTFQWYVMGWYRQAPGKERELVAAITWSGGSTYYADSVKGRFTISRDNAKNTVYLQMNSLKPEDTAVYYCNAVFWIWNAGYDYWGQGTQVTVSS” belongs “low polyreactivity”.
To “QVQLVESGGGLVQAGGSLRLSCAASGSTFQYNAMGWYRQAPGKERELVAVISGSGSRTYYADSVKGRFTISRDNSKNTVYLQMNSLKPEDTAVYYCAKQRGGQPRSSTYYYWGQGTQVTVSS” belongs “high polyreactivity”.
Turning to “QVQLVESGGGLVQAGGSLRLSCAASGSTFQYNAMVGYIQAPGKERELVAAISRGSSTKYADSVKGRFTISRDNAKNTVYLQMNSLKPEDTAVYYCAVDTRPSHRTRAYYYWGQGTQVTVSS”, the “polyreactivity (PSR sort gate)” value was “high polyreactivity”.
Turning to “QVQLVESGGGLVQAGGSLRLSCAASGSTFQYNDMGWYRQAPGKERELVAAISSSGGSTSYADSVKGRFTISRDNAKNTVYLQMNSLKPEDTAVYYCAASYPGYHLYRDDYWGQGTQVTVSS”, the “polyreactivity (PSR sort gate)” value is listed as “low polyreactivity”.
As for “QVQLVESGGGLVQAGGSLRLSCAASGSTFRAYAMGWYRQAPGKERELVAAISKRGGSTYYADSVKGRFTISRDNAKYTVYLQMNSLKPEDTAVYYCNAATRSPFDYWGQGTQVTVSS”, the “polyreactivity (PSR sort gate)” value is reported as “high polyreactivity”.
Regarding “QVQLVESGGGLVQAGGSLRLSCAASGSTFRFNAMGWYRQAPGKEREFVAAIRFTGGSTYYADSVKGRFTISRDNAKNTVYLQMNSLKPEDSAVYYCNNADEYSTVEYDYWGQGTQVTVSS”, the “polyreactivity (PSR sort gate)” value is on record as “low polyreactivity”.
As to “QVQLVESGGGLVQAGGSLRLSCAASGSTFRFNAMGWYRQAPGKEREFVAAISTSGGSTYYADSVKGRFTISRDNAKNTVYLQMNSLKPEDTAVYYCATRRRIRSSFYYDNDYWGQGTQVTVSS”, the “polyreactivity (PSR sort gate)” value is “high polyreactivity”.
To “QVQLVESGGGLVQAGGSLRLSCAASGSTFRFYAMGWYRQAPGKERELVAAISSGGSSTYYADSVKGRFTISRDNAKNTVYLQMNSLKPEDTAVYYCAADSYVVRWRERDYWGQGTQVTVSS” belongs “low polyreactivity”; to “QVQLVESGGGLVQAGGSLRLSCAASGSTFRFYAMGWYRQAPGKERELVAAITGSGGRTYYADSVKGRFTISRDNAKNTVYLQMNSLKPEDTAVYYCSARAYWLTGLTFSYKYNYWGQGTQVTVSS”, “high polyreactivity”.
Consider “QVQLVESGGGLVQAGGSLRLSCAASGSTFRFYAMGWYRQAPGKERELVAAITWRGGRTYYADSVKGRFTISRDNAKNTVYLQMNRLKPEDTAVYYCAGGRGWQSQIPAKYYYWGQGTQVTVSS”, for which the “polyreactivity (PSR sort gate)” value is on record as “high polyreactivity”.
For the sequence “QVQLVESGGGLVQAGGSLRLSCAASGSTFRGYAMGCYRQAPGKEREFVASISLSGGTDYADSVKGRFTISRDNAKNTVYLQMNSLKPEDTADYYCAAGYPAVSDSIEHNFWGQGTQVTVSS”, the “polyreactivity (PSR sort gate)” value is “low polyreactivity”.
With “QVQLVESGGGLVQAGGSLRLSCAASGSTFRGYAMGWYRQAPGKERELVAAISRSGGSTYYADSVKGRFTSSRDNAKNTVYLQMNSLKPEDTGVYYCAKRTSGYYWQWFDYCGQGTQVTVSS”, the “polyreactivity (PSR sort gate)” value is listed as “high polyreactivity”.
With “QVQLVESGGGLVQAGGSLRLSCAASGSTFRGYAMGWYRQAPGKERELVAAITGSGDRTRYADSVKGRFTISRDNAKNTVYLQMNSLKPEDTAVYYCAKVWPHWAYYSWGQGTQVTVSS”, the “polyreactivity (PSR sort gate)” value was “high polyreactivity”.
On to “QVQLVESGGGLVQAGGSLRLSCAASGSTFRGYAMGWYRQEPGKEREFVASISLSGGSTYYADSVKGRFTISRDNAKYTVYLQMNSLKPEDSAVYYCAARARGYGWRGDYWRQGTQVTVSS”, for which the “polyreactivity (PSR sort gate)” value is “low polyreactivity”.
Take “QVQLVESGGGLVQAGGSLRLSCAASGSTFRGYVMGWYRQAPGKERELVAAISRGGGSTYYADSVKGRFTISRDNAKNTVYLQMNSLKPEDTAVYYCATDYSGRQPGKYGYWGQGTQVTVSS”: the “polyreactivity (PSR sort gate)” value is listed as “high polyreactivity”.
In the case of “QVQLVESGGGLVQAGGSLRLSCAASGSTFRGYVMGWYRQAPGKERELVAVISYNGGSTYYADSVKGRFTISRDNAKNTVYLQMNSLKPEDTAVYYCAATYFFLYTSWDEYWGQGTQVTVSS”, the “polyreactivity (PSR sort gate)” value is “low polyreactivity”.
